Assay results reported in article PMC12139977.

Tests used:
[1] = molecular target: Syntaxin-1A (rat (endogenous in INS1 (832/13))) (UniProt P32851); assay: proximity ligation
[2] = molecular target: Syntaxin-1A (rat (endogenous in INS1 (832/13))) (UniProt P32851); assay: co-IP

UniProt P32851, sequence (P32851 whole entry): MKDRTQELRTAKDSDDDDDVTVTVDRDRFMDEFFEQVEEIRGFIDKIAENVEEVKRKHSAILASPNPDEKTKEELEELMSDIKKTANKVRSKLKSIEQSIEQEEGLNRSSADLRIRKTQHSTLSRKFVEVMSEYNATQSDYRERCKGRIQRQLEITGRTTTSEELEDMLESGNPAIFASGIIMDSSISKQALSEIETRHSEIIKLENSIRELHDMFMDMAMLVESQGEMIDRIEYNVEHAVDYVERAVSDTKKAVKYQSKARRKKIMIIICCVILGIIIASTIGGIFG

Substance	fold increase of PLA signal over the control [1]	fold increase of Tomosyn-2 bound to Stx1A against control cells [2]
Tomosyn-2 (natural protein)	8 fold	–
stabilized V5-tagged Tomosyn-2 (natural protein)	–	3 fold
